Source: US20210393777A1
Blank lines part the entries; values can stand above or below the substance they belong to.

Key:
[1] = target: human PCSK9-D347Y (human) (UniProt Q8NBP7); assay: cell-based or functional assay
[2] = target: LDLR (human) (UniProt P01130)
LDLR (human), sequence (P01130 22-860): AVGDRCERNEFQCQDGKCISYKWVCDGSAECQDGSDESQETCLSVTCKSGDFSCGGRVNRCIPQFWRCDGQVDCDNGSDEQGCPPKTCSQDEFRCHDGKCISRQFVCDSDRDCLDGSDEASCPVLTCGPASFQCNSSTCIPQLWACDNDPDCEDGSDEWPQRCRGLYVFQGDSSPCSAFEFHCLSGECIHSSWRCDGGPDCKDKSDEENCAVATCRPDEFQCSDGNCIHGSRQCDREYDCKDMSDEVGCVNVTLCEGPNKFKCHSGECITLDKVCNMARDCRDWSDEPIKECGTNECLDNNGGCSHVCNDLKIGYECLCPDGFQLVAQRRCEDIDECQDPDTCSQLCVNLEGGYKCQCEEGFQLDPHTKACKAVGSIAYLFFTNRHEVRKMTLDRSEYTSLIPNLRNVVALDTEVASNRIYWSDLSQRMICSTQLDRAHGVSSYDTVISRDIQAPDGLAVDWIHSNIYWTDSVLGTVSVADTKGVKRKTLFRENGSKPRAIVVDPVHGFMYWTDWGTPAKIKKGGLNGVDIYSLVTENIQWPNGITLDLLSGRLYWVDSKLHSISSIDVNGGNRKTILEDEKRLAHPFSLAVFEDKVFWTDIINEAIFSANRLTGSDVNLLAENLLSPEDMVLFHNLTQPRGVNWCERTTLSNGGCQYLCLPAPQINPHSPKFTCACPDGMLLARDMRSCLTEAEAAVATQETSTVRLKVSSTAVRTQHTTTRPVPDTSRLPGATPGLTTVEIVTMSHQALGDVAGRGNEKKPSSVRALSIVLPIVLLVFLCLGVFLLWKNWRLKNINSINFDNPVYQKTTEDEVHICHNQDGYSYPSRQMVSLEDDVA

EC50, uptake of fluorescently labeled LDL by HepG2 cells exposed to human PCSK9-D347Y [1]: 0.151 µg/mL
Substance: evolocumab (antibody)

Biological activity (LDL uptake assay in HepG2 cells), formulation 20, 25 C, month 0 (% of reference standard) [1]: 104
Biological activity (LDL uptake assay in HepG2 cells), formulation 20, 25 C, month 1 (% of reference standard) [1]: 94.2
Biological activity (LDL uptake assay in HepG2 cells), formulation 20, 25 C, month 3 (% of reference standard) [1]: 92.6
Biological activity (LDL uptake assay in HepG2 cells), formulation 20, 25 C, month 6 (% of reference standard) [1]: 81.1
Biological activity (LDL uptake assay in HepG2 cells), formulation 28, 2-8 C, month 0 (% of reference standard) [1]: 120
Biological activity (LDL uptake assay in HepG2 cells), formulation 28, 2-8 C, month 1 (% of reference standard) [1]: 106
Biological activity (LDL uptake assay in HepG2 cells), formulation 28, 2-8 C, month 2 (% of reference standard) [1]: 111
Biological activity (LDL uptake assay in HepG2 cells), formulation 28, 2-8 C, month 3 (% of reference standard) [1]: 109
Biological activity (LDL uptake assay in HepG2 cells), formulation 28, 2-8 C, month 6 (% of reference standard) [1]: 106
Biological activity (LDL uptake assay in HepG2 cells), formulation 28, 2-8 C, month 9 (% of reference standard) [1]: 104
Biological activity (LDL uptake assay in HepG2 cells), formulation 28, 2-8 C, month 12 (% of reference standard) [1]: 109
Biological activity (LDL uptake assay in HepG2 cells), formulation 29, 2-8 C, month 0 (% of reference standard) [1]: 102
Biological activity (LDL uptake assay in HepG2 cells), formulation 29, 2-8 C, month 1 (% of reference standard) [1]: 103
Biological activity (LDL uptake assay in HepG2 cells), formulation 29, 2-8 C, month 2 (% of reference standard) [1]: 97.3
Biological activity (LDL uptake assay in HepG2 cells), formulation 29, 2-8 C, month 3 (% of reference standard) [1]: 90.3
Biological activity (LDL uptake assay in HepG2 cells), formulation 29, 2-8 C, month 6 (% of reference standard) [1]: 84.9
Biological activity (LDL uptake assay in HepG2 cells), formulation 29, 2-8 C, month 9 (% of reference standard) [1]: 103
Biological activity (LDL uptake assay in HepG2 cells), formulation 29, 2-8 C, month 12 (% of reference standard) [1]: 97.7
Biological activity (LDL uptake assay in HepG2 cells), formulation 30, 2-8 C, month 0 (% of reference standard) [1]: 114
Biological activity (LDL uptake assay in HepG2 cells), formulation 30, 2-8 C, month 1 (% of reference standard) [1]: 94.6
Biological activity (LDL uptake assay in HepG2 cells), formulation 30, 2-8 C, month 2 (% of reference standard) [1]: 96.8
Biological activity (LDL uptake assay in HepG2 cells), formulation 30, 2-8 C, month 3 (% of reference standard) [1]: 98.7
Biological activity (LDL uptake assay in HepG2 cells), formulation 30, 2-8 C, month 6 (% of reference standard) [1]: 92.3
Biological activity (LDL uptake assay in HepG2 cells), formulation 30, 2-8 C, month 9 (% of reference standard) [1]: 106
Biological activity (LDL uptake assay in HepG2 cells), formulation 30, 2-8 C, month 12 (% of reference standard) [1]: 97.2
Biological activity (LDL uptake assay in HepG2 cells), formulation 31, 2-8 C, month 0 (% of reference standard) [1]: 122
Biological activity (LDL uptake assay in HepG2 cells), formulation 31, 2-8 C, month 1 (% of reference standard) [1]: 97.9
Biological activity (LDL uptake assay in HepG2 cells), formulation 31, 2-8 C, month 2 (% of reference standard) [1]: 83.5
Biological activity (LDL uptake assay in HepG2 cells), formulation 31, 2-8 C, month 3 (% of reference standard) [1]: 107
Biological activity (LDL uptake assay in HepG2 cells), formulation 31, 2-8 C, month 6 (% of reference standard) [1]: 108
Biological activity (LDL uptake assay in HepG2 cells), formulation 31, 2-8 C, month 9 (% of reference standard) [1]: 87.8
Biological activity (LDL uptake assay in HepG2 cells), formulation 31, 2-8 C, month 12 (% of reference standard) [1]: 102
EC50, uptake of fluorescently labeled LDL by HepG2 cells exposed to human PCSK9-D347Y [1]: 0.0927 µg/mL
Substance: JS002 (antibody)

IC50 of the fall in RFU as PCSK9 concentration rises ('Inhibition of different PCSK9 antigen species'; binding and uptake of LDL by cells) [2]: 2.46 µg/mL
Substance: Cynomolgus monkey PCSK9 (from UniProt A0A7N9D9N8) (enzyme)
